Results on one molecule are retold here after publication PMC7352597.

The target in assay [1] is T1, RL2 (recombinant Lactaptin 2), the recombinant fragment of human κ-Casein (human), P07498.
T1 chain: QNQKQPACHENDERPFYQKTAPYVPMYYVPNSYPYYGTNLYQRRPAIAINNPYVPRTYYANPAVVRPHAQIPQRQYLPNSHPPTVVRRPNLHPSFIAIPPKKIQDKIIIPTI
The assay can be described thus: SDS-PAGE and Western Blot of cell lysates; MDA-MB-231 cells treated with 200 µg/mL RL2 for indicated times, extracellular RL2 washed off; RL2 monomer and dimer bands detected in lysates with anti-κ-Casein antibody; SDS-PAGE under reducing conditions. The conditions noted are these: remark: other sources report otherwise. For orientation: A western blot detects proteins with antibodies after separation by electrophoresis.

Assay [2] concerns the target T1, RL2 (recombinant Lactaptin 2), the …. The assay is described as follows: cellular fractionation, SDS-PAGE and Western Blot; MDA-MB-231 cells stimulated with 100 µg/mL RL2; fractions for cytoplasm, nucleus and mitochondria; RL2 monomer and dimer bands detected by Western Blot. The conditions noted are these: remark: other sources report otherwise.

B1: RL2 (recombinant Lactaptin 2), the recombinant fragment of human κ-Casein, P07498 23-134 (domain or fragment)
chain: T1 chain
A word on the stoichiometry N: it is the number of molecules, sites or subunits per partner or assembly. As for B1, the stoichiometry N in assay [1] and in assay [2] was 2 each time.
